According to paper PMC7655957 (2020):

B1: NIN_(1–87), first EF-hand pair of Ninein (domain or fragment)
chain: MDEVEQDQHEARLKELFDSFDTTGTGSLGQEELTDLCHMLSLEEVAPVLQQTLLQDNLLGRVHFDQFKEALILILSRTLSNEEHFQE
B2: FIP3_(206–270), EF-hand pair of Rab11 family-interacting protein 3 (domain or fragment)
chain: RLRAVFDALDGDGDGFVRIEDFIQFATVYGAEQVKDLTKYLDPSGLGVISFEDFYQGITAIRNGD
B3: LIC1_(433–458), amphipathic helix of the dynein light intermediate chain-1 (peptide)
peptide: NMKAGATSEGVLANFFNSLLSKKTGS

Assays:
[1] = target: MBP-LIC1FL, full-length dynein light intermediate chain-1 (human, UniProt Q9Y6G9 1-523); experiment: ITC; 5 mM EGTA, 30 °C
Chain of MBP-LIC1FL, full-length dynein light intermediate chain-1 (Q9Y6G9 whole entry): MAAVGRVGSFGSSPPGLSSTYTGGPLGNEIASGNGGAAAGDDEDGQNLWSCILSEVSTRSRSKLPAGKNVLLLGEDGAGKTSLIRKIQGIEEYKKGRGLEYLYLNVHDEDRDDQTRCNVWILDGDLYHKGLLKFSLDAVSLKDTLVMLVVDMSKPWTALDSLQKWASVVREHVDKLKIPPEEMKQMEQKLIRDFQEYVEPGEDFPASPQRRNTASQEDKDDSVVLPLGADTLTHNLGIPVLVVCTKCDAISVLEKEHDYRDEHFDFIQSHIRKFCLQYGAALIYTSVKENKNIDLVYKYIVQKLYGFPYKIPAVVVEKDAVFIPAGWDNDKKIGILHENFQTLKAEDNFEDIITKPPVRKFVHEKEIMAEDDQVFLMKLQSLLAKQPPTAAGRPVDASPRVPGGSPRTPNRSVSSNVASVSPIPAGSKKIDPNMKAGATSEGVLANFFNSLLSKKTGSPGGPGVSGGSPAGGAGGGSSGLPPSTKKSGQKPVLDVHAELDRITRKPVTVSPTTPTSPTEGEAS

[2] = target: T1, WT_(ZIP+)/WT_(ZIP−), BICD2_(1–98) heterodimer with C-terminal ZIP+/ZIP− leucine zipper (mouse (cDNA, methods); called human in …, UniProt Q921C5-1 1-98; Q921C5-1 1-98); experiment: ITC; one-site binding model (rejected, poor fit)
T1 chain 1: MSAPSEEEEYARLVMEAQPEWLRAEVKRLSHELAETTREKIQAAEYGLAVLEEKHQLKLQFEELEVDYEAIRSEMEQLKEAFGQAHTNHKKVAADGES
T1 chain 2: T1 chain 1

Binder | Kd [1] [µM] | Kd [2] [nM]
B1 | 15.5 | 
B2 | 3.1 | 
B3 |  | 3000
